Target: the molecule itself
Test: crystal structure; PDC_(2.03) at 6 mg/mL in 20 mM Tris pH 7.5, 100 mM NaCl, 1 mM MgCl2, 0.5 mM DTT, 0.1 mM TPP; crystals grown in 0.1 M MES monohydrate pH 6.0, 2.4 M ammonium sulfate at 20 °C; two molecules in the asymmetric unit

B1: PDC_(2.03), computationally designed thermostable variant of Zymomonas mobilis pyruvate decarboxylase (enzyme)
chain: MDYTVGTYLAERLVQIGLKHHFAVAGDYNLVLLDNLLDNKNMEQVYCCNELNCGFSAEGYARAKGAAAAVVTYSVGALSAFDAIGGAYAENLPVILISGAPNNNDHAAAHVLHHALGKTDYHYQLEMAKNITAAAEAIYTPEEAPAKIDHVIKTALREKKPVYLEIACNIASMPCAAPGPASALFNDEASDEASLNAAVEETLKFIENRDKVAVLVGSKLRAAAAEEAAVKFADALGGAVATMAAAKSFFPEENPHYIGTSWGEVSYPGVEKTMKEADAVIALAPVFNDYSTTGWTDIPDPKKLVLAEPRSVVVNGIRFPSVHLKDYLTRLAEKVSKKTGALDFFKSLNAGELKKADPADPSAPLVNAEIARQIEDLLTPNTTVIAETGDSWFNAQRMKLPNGARVEYEMQWGHIGWSVPAAFGYAVGAPERRNILMVGDGSFQLTAQEVAQMVRLKLPVIIFLINNYGYTIEVMIHDGPYNNIKNWDYAALMEVFNGNGGYDSGAGKGLKAKTAAELEEAIKVALDNTDGPTLIECFIAREDCTEELVKWGERVAAANSRKPVNKLL
notes: the wild-type structures 2WVA and 2WVG served as design template and search model; Crystallised with thiamine pyrophosphate (TPP) and Mg2+; the asymmetric unit of 5TMA holds two molecules; also called variant 2.03; source: E. coli BL21 (DE3), purified (HisPur Cobalt column, Superdex 200 size-exclusion chromatography)
binding result: binds

— publication PMC6036693, “An iterative computational design approach to increase the thermal endurance of a mesophilic enzyme” (Biotechnology for Biofuels, 2018)
